# Measured values as given in patent publication US20160102139A1 (NATIONAL UNIVERSITY CORPORATION CHIBA UNIVERSITY, published 2016).
# T1: mouse Myl9 (myosin regulatory light chain polypeptide 9) (mouse, UniProt Q9CQ19 2-172)
# T1 construct: Native protein in mouse bone marrow extract (BM lysate) or mouse tissues; also called Myl9/12
# T1 sequence: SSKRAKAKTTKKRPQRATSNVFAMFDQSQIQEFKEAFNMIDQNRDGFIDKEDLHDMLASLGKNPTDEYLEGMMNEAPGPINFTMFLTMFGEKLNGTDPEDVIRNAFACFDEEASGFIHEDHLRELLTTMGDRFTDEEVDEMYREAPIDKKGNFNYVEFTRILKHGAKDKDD
# T2: mouse Myl12b (myosin regulatory light chain polypeptide 12b) (mouse, UniProt Q3THE2 1-172, limits assumed)
# T2 construct: Native protein in mouse bone marrow extract (BM lysate) or mouse tissues; also called Myl9/12
# T2 sequence: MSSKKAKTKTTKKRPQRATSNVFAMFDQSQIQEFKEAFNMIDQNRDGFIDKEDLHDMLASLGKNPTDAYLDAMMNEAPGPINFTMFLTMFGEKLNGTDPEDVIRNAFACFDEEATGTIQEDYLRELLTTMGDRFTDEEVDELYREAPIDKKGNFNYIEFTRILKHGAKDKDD
# B1: 3xFlag mCD69EC treated with the deglycosylation enzyme PNGase F (receptor, mouse, UniProt P37217 62-199, looked up)
# chain: NVGKYNCPGLYEKLESSDHHVATCKNEWISYKRTCYFFSTTTKSWALAQRSCSEDAATLAVIDSEKDMTFLKRYSGELEHWIGLKNEANQTWKWANGKEFNSWFNLTGSGRCVSVNHKNVTAVDCEANFHWVCSKPSR
# modifications: N-glycans removed by PNGase F (500 U per 1 ug protein)
# notes: extracellular domain; Same polypeptide as m2, after deglycosylation with N-glycosidase PNGase F; also called CD69EC previously treated with PNGase F; deglycosylated 3xFLAG mCD69EC; not shown: N-terminal 3xFlag tag from vector p3xFLAG CMV-9
# B2: mouse CD69 extracellular domain protein having 3xFlag-tag added thereto (3xFlag mCD69EC) (receptor, UniProt P37217 62-199, looked up)
# chain: NVGKYNCPGLYEKLESSDHHVATCKNEWISYKRTCYFFSTTTKSWALAQRSCSEDAATLAVIDSEKDMTFLKRYSGELEHWIGLKNEANQTWKWANGKEFNSWFNLTGSGRCVSVNHKNVTAVDCEANFHWVCSKPSR
# notes: extracellular domain; also called mCD69EC protein; not shown: N-terminal 3xFlag tag from vector p3xFLAG CMV-9
# Experiments:
# Experiment in all cases: immunoprecipitation with anti-Flag M2 antibody from bone marrow extract, immunoblot with anti-Myl9/12 antibody
# [1] = biological target: B2
# Description: (§1) Then, whether the binding of Myl9, Myl12a, and Myl12b with CD69 actually occurred was investigated. Firstly, mCD69EC sequence was inserted to p3xFLAG CMV-9 (Sigma-Aldrich Co. LLC.) having Flag tag incorporated at the N-terminal to produce an expression vector of mCD69EC sequence having Flag-Tag added at the N-terminal. The expression vector was transformed to 293 T cells to overexpress 3xFlag mCD69EC, and then a cell extract was prepared. As a control, a cell extract was prepared from 293 T cells overexpressing 3xFlag peptide. 3xFlag mCD69EC protein or 3xFlag peptide was purified from the cell extract using anti-[…] (SEQ ID NO: 21) tag antibody beads (Wako Pure Chemical Industries, Ltd.). In this case, […] is a peptide represented by a single letter code for an amino acid. Those purified proteins were each subjected to a reaction with a bone marrow extract (BM lysate) in the same manner as described above and the resultant products were subjected to immunoprecipitation using anti-Flag M2 antibody (Sigma-Aldrich Co. LLC.) and protein-G (GE Healthcare). After the immunoprecipitation was performed, the precipitates were separated by SDS-PAGE and transferred to a polyvinylidene difluoride (PVDF) membrane (Bio-Rad Laboratories, Inc.). Subsequently, immunoblotting was performed using an antibody which recognized Myl9, Myl12a, and Myl12b (hereinafter referred to as anti-Myl9/12 antibody). That is, each protein was detected by ChemiDocXRS+ (Bio-Rad Laboratories, Inc.) with ECL detection reagents (GE Healthcare) using rabbit anti-Myl9 antibody (Abcam plc.) as a primary antibody and horseradish peroxidase (HRP)-labeled anti-rabbit IgG antibody (Cell Signaling Technology, Inc.) as a secondary antibody. Deglycosylation treatment of the mCD69EC protein was performed by adding 500 U of N-glycosidase PNGase F (New England Biolabs Ltd.) to 1 μg of 3xFLAG mCD69EC.
# [2] = biological target: B1
# Description: as §1
# [3] = biological target: T1, mouse Myl9 (myosin regulatory light …)
# Description: as §1
# [4] = biological target: T2, mouse Myl12b (myosin regulatory light …)
# Description: as §1
binding result [1],binding result [2],binding result [3],binding result [4],Binder
binds,binds,–,–,"mouse Myl12a (myosin regulatory light chain polypeptide 12a) (ligand, Native protein in mouse bone marrow extract (BM lysate) or mouse tissues; also called Myl9/12) MSSKRAKTKTTKKRPQRATSNVFAMFDQSQIQEFKEAFNMIDQNRDGFIDKEDLHDMLASMGKNPTDEYLDAMMNEAPGPINFTMFLTMFGEKLNGTDPEDVIRNAFACFDEEAIGTIQEDYLRELLTTMGDRFTDEEVDELYREAPIDKKGNFNYIEFTRILKHGAKDKDD"
–,–,binds,binds,B1
–,–,binds,binds,B2
